Earlier results on one substance are cited in article PMC7788954.

For the series, the target named is Sans SAM-PBM (Homo sapiens) (UniProt Q495M9).
Chain of Sans SAM-PBM (Homo sapiens) (Q495M9 388-461): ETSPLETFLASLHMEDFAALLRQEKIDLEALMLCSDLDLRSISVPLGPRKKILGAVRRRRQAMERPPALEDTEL

Chain of harmonin N-terminal HHD-containing supramodule (Q9Y6N9 1-192): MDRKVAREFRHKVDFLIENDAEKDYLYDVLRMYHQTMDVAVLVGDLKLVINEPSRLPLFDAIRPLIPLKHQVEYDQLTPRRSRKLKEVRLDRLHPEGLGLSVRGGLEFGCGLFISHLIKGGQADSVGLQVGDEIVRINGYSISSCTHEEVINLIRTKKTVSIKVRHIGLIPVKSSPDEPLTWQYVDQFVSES

Consider “harmonin N-terminal HHD-containing supramodule (from UniProt Q9Y6N9)”, for which the Kd is 1 nM.
